This is an account of results in publication doi:10.1101/2023.01.30.525655.

Where only a bound is given, the exact number is not on record here.

The target in test [1] is MDL1-6xHis (Arabidopsis thaliana MIF/D-DT-like protein 1, hexahistidine-tagged) (Arabidopsis thaliana). Put plainly: crystal structure.
Test [2] has as its target RED-NHS-MIF-6xHis (human MIF-6xHis labelled with the RED-NHS dye) (human) (UniProt P14174). As to the kind of experiment: MST.
Test [3] concerns the target MDL1-6xHis (Arabidopsis thaliana MIF/D-DT-like protein 1, hexahistidine-tagged) (Arabidopsis thaliana). As to the kind of experiment: SEC.
The target of test [4] is MIF-6xHis (human macrophage migration inhibitory factor, hexahistidine-tagged) (human) (UniProt P14174). As to the kind of experiment: SEC.
Chain of MIF-6xHis (human macrophage migration inhibitory factor, hexahistidine-tagged) (human) (P14174 2-115): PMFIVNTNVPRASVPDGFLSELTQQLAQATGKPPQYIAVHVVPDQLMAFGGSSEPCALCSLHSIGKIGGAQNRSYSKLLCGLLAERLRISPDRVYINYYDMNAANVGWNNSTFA

Chain of RED-NHS-MIF-6xHis (human MIF-6xHis labelled with the RED-NHS dye) (human) (P14174 2-115): as above

By stoichiometry N is commonly meant the number of molecules, sites or subunits per partner or assembly. For orientation: Kd means a measure of binding affinity in units of concentration. Higher therefore signals lower affinity. Turning to “MDL1-6xHis (Arabidopsis thaliana MIF/D-DT-like protein 1, hexahistidine-tagged) (natural protein)”, the stoichiometry N in test [1] and in test [3] was 3 throughout. In test [2], this substance came in with a Kd of less than 5 µM. For the same substance, the fraction of the mixture in the hetero-hexamer in test [4] is 0.33.
